Assays:
[1] = target: K63-polyubiquitinated Sic1 (UniProt P38634)
[2] = target: K63-polyubiquitinated Nedd4 (resin-bound GST-Nedd4, autoubiquitinated) (UniProt P46934); test: pull-down
[3] = target: K48-linked tetraubiquitin (Homo sapiens) (UniProt P0CG48); settings: cited from earlier work
[4] = target: K63-linked tetraubiquitin (Homo sapiens) (UniProt P0CG48); settings: cited from earlier work

K63-polyubiquitinated Nedd4 (resin-bound GST-Nedd4, autoubiquitinated), sequence (P46934 whole entry): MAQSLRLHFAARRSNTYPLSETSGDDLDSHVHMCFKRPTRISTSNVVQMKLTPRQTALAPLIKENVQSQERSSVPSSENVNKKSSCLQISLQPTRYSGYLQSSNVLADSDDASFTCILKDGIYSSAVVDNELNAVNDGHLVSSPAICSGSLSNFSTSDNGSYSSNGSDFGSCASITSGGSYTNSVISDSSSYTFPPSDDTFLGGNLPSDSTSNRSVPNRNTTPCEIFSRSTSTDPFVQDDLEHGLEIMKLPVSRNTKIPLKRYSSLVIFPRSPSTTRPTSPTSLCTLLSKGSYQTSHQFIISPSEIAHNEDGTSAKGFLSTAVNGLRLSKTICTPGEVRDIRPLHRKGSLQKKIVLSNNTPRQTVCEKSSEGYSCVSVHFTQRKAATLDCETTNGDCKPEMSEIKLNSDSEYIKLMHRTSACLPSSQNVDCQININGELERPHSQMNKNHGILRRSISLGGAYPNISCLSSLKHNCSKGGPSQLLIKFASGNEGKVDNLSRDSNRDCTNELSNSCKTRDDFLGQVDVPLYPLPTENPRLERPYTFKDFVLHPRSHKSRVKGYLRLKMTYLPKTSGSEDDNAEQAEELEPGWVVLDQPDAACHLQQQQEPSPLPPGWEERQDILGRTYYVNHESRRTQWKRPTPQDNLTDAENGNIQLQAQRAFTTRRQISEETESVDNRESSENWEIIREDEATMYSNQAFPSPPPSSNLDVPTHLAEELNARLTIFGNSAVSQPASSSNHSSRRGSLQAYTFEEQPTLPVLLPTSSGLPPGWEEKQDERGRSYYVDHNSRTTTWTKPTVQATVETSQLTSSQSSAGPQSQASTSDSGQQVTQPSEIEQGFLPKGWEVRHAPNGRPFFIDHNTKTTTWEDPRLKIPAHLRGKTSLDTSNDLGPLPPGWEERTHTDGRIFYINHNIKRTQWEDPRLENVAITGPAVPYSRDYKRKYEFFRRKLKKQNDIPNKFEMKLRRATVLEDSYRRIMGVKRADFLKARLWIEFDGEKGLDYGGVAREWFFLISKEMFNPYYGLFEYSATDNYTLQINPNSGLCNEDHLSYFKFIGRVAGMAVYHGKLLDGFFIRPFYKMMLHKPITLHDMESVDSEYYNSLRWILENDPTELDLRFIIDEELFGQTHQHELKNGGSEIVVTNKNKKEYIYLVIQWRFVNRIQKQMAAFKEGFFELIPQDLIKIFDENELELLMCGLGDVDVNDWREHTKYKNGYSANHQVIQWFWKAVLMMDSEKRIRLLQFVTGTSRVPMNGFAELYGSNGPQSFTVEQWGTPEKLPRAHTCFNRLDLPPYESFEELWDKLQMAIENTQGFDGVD
hHR23A UBA2, sequence (P54725 315-361): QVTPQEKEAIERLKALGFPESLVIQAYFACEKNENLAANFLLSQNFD
Hrs, purified recombinant, sequence (O14964 whole entry): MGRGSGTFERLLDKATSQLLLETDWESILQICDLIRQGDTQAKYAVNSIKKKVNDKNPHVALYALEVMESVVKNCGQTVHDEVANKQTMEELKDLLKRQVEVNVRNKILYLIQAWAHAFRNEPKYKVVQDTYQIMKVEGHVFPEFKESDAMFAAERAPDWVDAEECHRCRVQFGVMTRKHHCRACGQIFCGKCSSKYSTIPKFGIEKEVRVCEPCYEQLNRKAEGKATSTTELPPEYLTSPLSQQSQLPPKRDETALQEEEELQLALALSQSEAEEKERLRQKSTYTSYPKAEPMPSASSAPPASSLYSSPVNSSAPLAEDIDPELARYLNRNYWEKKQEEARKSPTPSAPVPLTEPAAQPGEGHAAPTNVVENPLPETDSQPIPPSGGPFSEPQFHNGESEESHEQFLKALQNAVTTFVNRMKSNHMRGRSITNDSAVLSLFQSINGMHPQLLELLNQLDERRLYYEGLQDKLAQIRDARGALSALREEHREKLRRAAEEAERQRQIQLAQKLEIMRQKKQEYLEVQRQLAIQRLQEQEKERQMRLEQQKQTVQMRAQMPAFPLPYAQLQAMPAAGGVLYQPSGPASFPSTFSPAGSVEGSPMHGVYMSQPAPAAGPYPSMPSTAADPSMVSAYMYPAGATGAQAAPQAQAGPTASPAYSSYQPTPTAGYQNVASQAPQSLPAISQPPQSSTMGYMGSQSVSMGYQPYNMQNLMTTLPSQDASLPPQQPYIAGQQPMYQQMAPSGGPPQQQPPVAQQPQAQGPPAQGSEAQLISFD

Hrs, purified recombinant (from UniProt O14964 1-777) (natural protein)
percent decrease of conjugate binding to proteasomes at 80nM [1]: 80%

26S proteasomes purified from rabbit muscle (complex)
percent binding with lysate of cells with Hrs and STAM knocked down [2]: 35%
percent binding with lysate of control cells [2]: 19%
percent reduction of binding by the cell extract [2]: < 80%

hHR23A UBA2 (from UniProt P54725)
Kd [3]: 8 µM
Kd [4]: 28 µM
